This experiment concerns the target T1, ASAP1 SH3 domain (aa. 1083–1147) (mouse, UniProt Q9QWY8 1083-1147).
T1 sequence (looked up): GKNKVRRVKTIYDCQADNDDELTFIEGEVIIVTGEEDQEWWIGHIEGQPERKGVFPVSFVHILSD
Nature of the experiment: ITC.

Turning to GIKKPVRRKLKE (peptide, UniProt Q01484 1699-1710, looked up) [12-residue peptide derived from gAnkB (aa. 1699–1710)], the Kd was about 190 nM.

As to GIKEPVRRKLKE (peptide, UniProt Q01484 1699-1710, looked up) [gAnkB peptide K1702E], the “fold weakening of the interaction against the wild-type gAnkB peptide” value was about 264 fold.

As to GIKKGVRRKLKE (peptide, UniProt Q01484 1699-1710, looked up) [gAnkB peptide P1703G], the “fold decrease of the binding affinity against the wild-type gAnkB peptide” value was about 3 fold.

Turning to GIKKPVERKLKE (peptide, UniProt Q01484 1699-1710, looked up) [gAnkB peptide R1705E], the “fold weakening of the interaction against the wild-type gAnkB peptide” value was about 105 fold.

Turning to IPPDETQSTQKQHKPSLGIKKPVRRKLKEKQKQKEEGLQASAEKAELKKG (domain or fragment, human, UniProt Q01484 1682-1731, looked up) [gAnkB (aa. 1682–1731)], the Kd was about 140 nM.

The record behind these values is PMC11490884 (The Journal of Biological Chemistry, 2024).
